Substrate: CNC(=O)Oc1ccc2[nH]cc(CCNC(C)=O)c2c1
Experiment: MTase-Glo bioluminescence assay
Format: biochemical, Streptomyces griseofuscus
Conditions: […] SAM; optimized conditions ([…] °C, pH […] KPi stated as optimum)

B1: PsmD (Streptomyces griseofuscus) (protein)
chain: MMQGQPHQDAGMPEPYAATADVYDRLVDYAIAEWGECPRPQMADFVEQAWAARGHRVRRVLELCCGTGLMTEQLVRRGYEVTAVDRSETMLALAKQRVGGAADFHQIELPAPLPDGADAVVCTAAAFNYQASARSLGETLRAVATVLPAGATFVFDIETAALLKGHWGNRVWAADEGDLAFIWDFTSEPDTTYCDVHYTQFTRHEAGADAYTGVREVHRLYAFDHDTVRAQARAAGFAQAEVFDNYTERPATDTTRYETWVLTRDER
Km: 11.3 µM

Reference: PMC8596708
